Values of other authors in patent publication US20180022822A1, “NOVEL ANTI-FIBROBLAST ACTIVATION PROTEIN (FAP) BINDING AGENTS AND USES THEREOF” (Mabimmune Diagnostics AG, priority 2016, published 2018).

What was measured:
[1] = pH 7.8
[2] = in vivo

Row | Molecule | stability of inhibitory activity [1] | patients with change in pharmacokinetics and reduced tumor uptake ([2]; human) | patients who developed human-anti-human antibodies (HAHA) [2]
1 | CC(C)[C@H](N)C(=O)N1CCC[C@H]1B(O)O [Talabostat, Val-boroPro] | rapidly loses inhibitory activity |  | 
2 | Sibrotuzumab: humanized version of the F19 antibody that specifically binds to human FAP |  | 4 of 26 | 8 of 26
